Source: the supplement of paper PMC7125110
± gives the standard error. For some of these results: Variants at the floor of the assay were thinned out.

B1: glmS ribozyme (parent)
chain: AUAAAAGCGCCAGAACUACAGAAAUGUAGUUGACGAGGAGGAGGUUUAUCGAAUUUUCGGCGGAUGCCUCCAAA

Columns and labels:
Conditions in all cases: with glucosamine-6-phosphate
glucosamine-6-phosphate [1] = variants of: B1; experiment: kcat; higher = faster cleavage; RNA array
Method in brief: (§1)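 E. coli RNA polymerase transcribed barcoded ribozyme variants in situ on sequenced MiSeq chips, which were tracked via a hybridised Cy3 probe at 37 °C. Tiles were imaged over ~14 h after glucosamine-6-phosphate (40 μM to 10 mM) in HEPES/KCl/Mg(OAc)2 buffer was flowed in. Normalised per-tile medians were fit to one- or two-exponential decays for kobs, and kcat and KM came from weighted Michaelis–Menten fits.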

glucosamine-6-phosphate [2] = variants of: B1; experiment: KM; higher = weaker cofactor use; RNA array
Method in brief: as §1

glucosamine-6-phosphate [3] = variants of: B1; experiment: self-cleavage kobs at 40 uM GlcN6P; higher = faster cleavage; RNA array
Method in brief: as §1

glucosamine-6-phosphate [4] = variants of: B1; experiment: self-cleavage kobs at 160 uM GlcN6P; higher = faster cleavage; RNA array
Method in brief: as §1

glucosamine-6-phosphate [5] = variants of: B1; experiment: self-cleavage kobs at 640 uM GlcN6P; higher = faster cleavage; RNA array
Method in brief: as §1

glucosamine-6-phosphate [6] = variants of: B1; experiment: self-cleavage kobs at 2500 uM GlcN6P; higher = faster cleavage; RNA array
Method in brief: as §1

glucosamine-6-phosphate [7] = variants of: B1; experiment: self-cleavage kobs at 10000 uM GlcN6P; higher = faster cleavage; RNA array
Method in brief: as §1

Row | Variant | kcat (glucosamine-6-phosphate [1]) | KM (glucosamine-6-phosphate [2]) | self-cleavage kobs at 40 uM GlcN6P (glucosamine-6-phosphate [3]) | self-cleavage kobs at 160 uM GlcN6P (glucosamine-6-phosphate [4]) | self-cleavage kobs at 640 uM GlcN6P (glucosamine-6-phosphate [5]) | self-cleavage kobs at 2500 uM GlcN6P (glucosamine-6-phosphate [6]) | self-cleavage kobs at 10000 uM GlcN6P (glucosamine-6-phosphate [7])
1 | AUAAAAGCGCCAGAACUACAGAAAUGUAGUUGACGAGGAGGAGGUUUAUCGAAUGUUCGGCGGAUGCCUCAAAA | 0.00224 ± 0.00065 s⁻¹ | 528 ± 220 µM | 0.000162 ± 2.2e-05 s⁻¹ | 0.000541 ± 0.00013 s⁻¹ | 0.00113 ± 0.00015 s⁻¹ | 0.00315 ± 0.00085 s⁻¹ | –
2 | AUAAAAGCGCCAGAACUACAGAAAUGUAGUUGACGAGGAGGAGGUUUAUCGAAUAUUCGGCGGACGCCUCCAAA | 0.000613 ± 6.7e-05 s⁻¹ | 1160 ± 230 µM | – | 7.83e-05 ± 1.4e-05 s⁻¹ | 0.0002 ± 2.9e-05 s⁻¹ | 0.000471 ± 6.1e-05 s⁻¹ | 0.000505 ± 9.2e-05 s⁻¹
3 | AUAAAAGCGCCAGAACUACAGAAAUGUAGUUGACGAGGAGGAGGUUUAUCGAAUCUUCGGCGGAUUCCUCCAAA | 0.00114 ± 0.00044 s⁻¹ | – | 6.69e-05 ± 1.8e-05 s⁻¹ | 0.000202 ± 5.7e-05 s⁻¹ | 0.000297 ± 5.7e-05 s⁻¹ | 0.00105 ± 0.00021 s⁻¹ | 0.00102 ± 0.00022 s⁻¹
4 | AUAAAAGCGCCAGAACUACAGAAAUGUAGUUGACGAGGAGGAGGUUUAUCGAAUAUUCGGCGGAUGCGUCCAAA | 8.49e-05 ± 3.5e-06 s⁻¹ | 51.2 ± 14 µM | 3.36e-05 ± 1e-05 s⁻¹ | 6.64e-05 ± 1e-05 s⁻¹ | 8.75e-05 ± 1.2e-05 s⁻¹ | 8.44e-05 ± 1.1e-05 s⁻¹ | 8.04e-05 ± 7.4e-06 s⁻¹
5 | AUAAAAGCGCCAGAACUACAGAAAUGUAGUUGACGAGGAGGAGGUUUAUCGAAUUAUCGGCGGAUCCCUCCAAA | 0.000237 ± 5.7e-05 s⁻¹ | – | – | – | 0.000107 ± 1.6e-05 s⁻¹ | 0.000132 ± 3.9e-05 s⁻¹ | 0.000238 ± 4.6e-05 s⁻¹
6 | AUAAAAGCGCCAGAACUACAGAAAUGUAGUUGACGAGGAGGAGGUUUAUCGAAUUAUCGGCGGAUGACUCCAAA | 0.00827 ± 0.0033 s⁻¹ | 3230 ± 1600 µM | 0.000132 ± 1.3e-05 s⁻¹ | 0.000294 ± 4.8e-05 s⁻¹ | 0.00132 ± 0.00016 s⁻¹ | 0.00323 ± 0.00075 s⁻¹ | 0.00678 ± 0.0011 s⁻¹
7 | AUAAAAGCGCCAGAACUACAGAAAUGUAGUUGACGAGGAGGAGGUUUAUCGAAUCUUCGGCGGAGGCCUCCAAA | 0.00367 ± 0.00064 s⁻¹ | 2540 ± 680 µM | 4.04e-05 ± 1.8e-05 s⁻¹ | 0.000212 ± 5.2e-05 s⁻¹ | 0.000908 ± 0.00016 s⁻¹ | 0.00177 ± 0.0003 s⁻¹ | 0.00288 ± 0.00054 s⁻¹
8 | AUAAAAGCGCCAGAACUACAGAAAUGUAGUUGACGAGGAGGAGGUUUAUCGAAUUAUGGGCGGAUGCCUCCAAA | 0.000188 ± 1.8e-05 s⁻¹ | 1930 ± 470 µM | – | – | 4.15e-05 ± 9.1e-06 s⁻¹ | 0.000121 ± 1.6e-05 s⁻¹ | 0.000151 ± 1.7e-05 s⁻¹
9 | AUAAAAGCGCCAGAACUACAGAAAUGUAGUUGACGAGGAGGAGGUUUAUCGAAUUAUAGGCGGAUGCCUCCAAA | 0.00106 ± 0.00052 s⁻¹ | – | – | 3.2e-05 ± 1.1e-05 s⁻¹ | 0.000101 ± 1.3e-05 s⁻¹ | 0.000187 ± 2.3e-05 s⁻¹ | 0.000605 ± 5.6e-05 s⁻¹
10 | AUAAAAGCGCCAGAACUACAGAAAUGUAGUUGACGAGGAGGAGGUUUAUCGAAUGUUCGCCGGAUGCCUCCAAA | < 1e-05 s⁻¹ | – | – | < 1e-05 s⁻¹ | – | – | –
11 | AUAAAAGCGCCAGAACUACAGAAAUGUAGUUGACGAGGAGGAGGUUUAUCGAAUGUUCGGCGGAUGCCACCAAA | 0.000144 ± 3.5e-05 s⁻¹ | – | 4.44e-05 ± 1.1e-05 s⁻¹ | 7.03e-05 ± 9.5e-06 s⁻¹ | 0.00015 ± 1.9e-05 s⁻¹ | 0.00021 ± 2.3e-05 s⁻¹ | 9.83e-05 ± 1.7e-05 s⁻¹
12 | AUAAAAGCGCCAGAACUACAGAAAUGUAGUUGACGAGGAGGAGGUUUAUCGAAUGUUCGUCGAAUCCCUCCAAA | 1.16e-05 ± 1e-06 s⁻¹ | – | – | – | – | < 1e-05 s⁻¹ | –
13 | AUAAAAGCGCCAGAACUACAGAAAUGUAGUUGACGAGGAGGAGGUUUAUCGAAUGUUCGGCGGAUGCGUCCAAA | 9.78e-05 ± 1e-05 s⁻¹ | 345 ± 170 µM | – | – | 6.54e-05 ± 1.3e-05 s⁻¹ | 7.64e-05 ± 1.5e-05 s⁻¹ | 0.000104 ± 1.7e-05 s⁻¹
14 | AUAAAAGCGCCAGAACUACAGAAAUGUAGUUGACGAGGAGGAGGUUUAUCGAAUAUUCGGCGGAUGCCUGCAAA | 0.000118 ± 1.5e-05 s⁻¹ | – | 3.74e-05 ± 7.5e-06 s⁻¹ | 0.000102 ± 1.2e-05 s⁻¹ | 0.000148 ± 1.6e-05 s⁻¹ | 0.000117 ± 1.2e-05 s⁻¹ | 0.000101 ± 9.9e-06 s⁻¹
15 | AUAAAAGCGCCAGAACUACAGAAAUGUAGUUGACGAGGAGGAGGUUUAUCGAAUCUUCGGCGGAUGCCUGCAAA | < 1e-05 s⁻¹ | – | < 1e-05 s⁻¹ | – | – | – | –
